Measured values reported in the supplement of paper PMC9876800.

Tested on: peptide library, one residue held at a place counted from the S/T acceptor
Experiment: relative phosphorylation of the sub-library (ratio to the mean residue at this position); higher = residue favoured
Outline: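 Human or orthologue kinase constructs, purified and recombinant, were incubated under kinase-specific conditions in 384-well plates with biotinylated degenerate peptide sub-libraries. Each sub-library fixed one residue at one position around a central Ser/Thr. Incubations lasted 90 min with peptides at 50 μM and 50 μM ATP spiked with γ-32P-ATP, after which spots on streptavidin membranes were phosphorimaged and quantified by densitometry. Relative sub-library phosphorylation is a ratio to the mean residue at that position.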

STK38, construct: Full length, human, sequence (Q15208 whole entry, looked up): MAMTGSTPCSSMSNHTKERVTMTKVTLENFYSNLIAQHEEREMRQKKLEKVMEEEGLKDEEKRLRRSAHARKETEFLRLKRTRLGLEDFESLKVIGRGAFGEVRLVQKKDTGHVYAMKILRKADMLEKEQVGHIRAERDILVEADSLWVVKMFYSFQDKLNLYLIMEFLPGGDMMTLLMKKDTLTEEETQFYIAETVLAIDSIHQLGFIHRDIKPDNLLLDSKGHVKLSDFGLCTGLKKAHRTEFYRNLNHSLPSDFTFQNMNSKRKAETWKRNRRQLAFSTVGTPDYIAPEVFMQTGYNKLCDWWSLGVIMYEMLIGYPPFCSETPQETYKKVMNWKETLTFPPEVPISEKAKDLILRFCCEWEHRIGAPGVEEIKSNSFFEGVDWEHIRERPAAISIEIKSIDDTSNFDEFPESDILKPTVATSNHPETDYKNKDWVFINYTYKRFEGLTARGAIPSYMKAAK
BMPR1A, construct: aa187-end, human, sequence (P36894 187-532, looked up): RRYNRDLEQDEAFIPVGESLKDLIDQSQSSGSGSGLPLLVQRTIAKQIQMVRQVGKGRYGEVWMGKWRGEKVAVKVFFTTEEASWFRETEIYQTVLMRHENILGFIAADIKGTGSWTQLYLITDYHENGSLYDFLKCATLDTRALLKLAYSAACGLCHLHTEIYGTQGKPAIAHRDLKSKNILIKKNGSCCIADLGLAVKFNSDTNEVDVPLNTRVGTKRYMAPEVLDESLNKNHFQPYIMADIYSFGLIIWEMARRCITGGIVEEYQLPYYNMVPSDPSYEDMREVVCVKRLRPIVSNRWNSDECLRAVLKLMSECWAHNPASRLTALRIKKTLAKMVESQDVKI
GRK3, construct: Full length, human, sequence (P35626 whole entry, looked up): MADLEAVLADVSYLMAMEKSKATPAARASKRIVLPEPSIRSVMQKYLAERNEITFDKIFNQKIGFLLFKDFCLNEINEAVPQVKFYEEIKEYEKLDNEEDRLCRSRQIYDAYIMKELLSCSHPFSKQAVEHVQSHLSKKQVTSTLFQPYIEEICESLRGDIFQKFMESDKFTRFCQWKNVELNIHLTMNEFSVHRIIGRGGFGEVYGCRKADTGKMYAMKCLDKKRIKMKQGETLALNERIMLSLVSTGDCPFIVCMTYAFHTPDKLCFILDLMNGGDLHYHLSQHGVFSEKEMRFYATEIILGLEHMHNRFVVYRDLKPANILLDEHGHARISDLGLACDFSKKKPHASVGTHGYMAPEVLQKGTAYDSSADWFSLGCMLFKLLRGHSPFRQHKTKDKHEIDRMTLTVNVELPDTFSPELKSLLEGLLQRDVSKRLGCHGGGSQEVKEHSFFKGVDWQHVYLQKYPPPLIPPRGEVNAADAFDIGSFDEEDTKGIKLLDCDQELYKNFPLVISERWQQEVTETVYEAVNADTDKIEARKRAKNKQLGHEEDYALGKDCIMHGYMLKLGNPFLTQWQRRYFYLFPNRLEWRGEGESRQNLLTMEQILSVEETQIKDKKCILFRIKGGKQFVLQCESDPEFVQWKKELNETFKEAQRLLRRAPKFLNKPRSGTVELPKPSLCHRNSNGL
NEK3, construct: Full length, human, sequence (P51956 whole entry, looked up): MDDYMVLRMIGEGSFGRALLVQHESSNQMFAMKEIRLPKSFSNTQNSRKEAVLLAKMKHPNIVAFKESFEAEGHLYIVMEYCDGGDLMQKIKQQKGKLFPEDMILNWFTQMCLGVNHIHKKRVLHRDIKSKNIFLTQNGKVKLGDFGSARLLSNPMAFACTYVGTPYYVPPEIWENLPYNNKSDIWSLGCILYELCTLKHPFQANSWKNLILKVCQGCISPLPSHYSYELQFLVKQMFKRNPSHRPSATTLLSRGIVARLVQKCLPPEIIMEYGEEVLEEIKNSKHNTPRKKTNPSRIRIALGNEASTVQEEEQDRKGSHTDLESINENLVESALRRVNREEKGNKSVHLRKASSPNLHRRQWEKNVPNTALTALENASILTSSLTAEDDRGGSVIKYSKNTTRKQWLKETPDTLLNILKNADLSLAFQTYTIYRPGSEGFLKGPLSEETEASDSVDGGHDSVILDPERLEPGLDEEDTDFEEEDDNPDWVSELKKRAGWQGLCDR

GRK3, construct: Full length, human (from UniProt P35626)
relative phosphorylation
Settings | at +1 | at +2 | at +3 | at +4 | at -1 | at -2 | at -3 | at -4 | at -5
A fixed | 0.782 | 1.39 | 0.849 | 0.868 | 0.913 | 0.745 | 0.971 | 1 | 1.03
D fixed | 1.07 | 0.888 | 1.9 | 1.5 | 1.25 | 1.53 | 2.52 | 1.73 | 1.39
E fixed | 1.75 | 0.887 | 1.99 | 1.36 | 1.62 | 4.07 | 3.01 | 1.78 | 1.2
F fixed | 1.36 | 1.18 | 0.882 | 0.855 | 0.914 | 0.895 | 0.666 | 0.868 | 1.1
G fixed | 0.857 | 0.967 | 1.04 | 1 | 0.703 | 0.784 | 0.822 | 0.962 | 0.9
H fixed | 0.973 | 1.22 | 1.03 | 1.06 | 1.06 | 0.755 | 0.631 | 0.892 | 0.929
I fixed | 1.27 | 1.44 | 0.933 | 1.1 | 0.913 | 0.573 | 0.649 | 0.855 | 1.06
K fixed | 0.51 | 0.51 | 0.614 | 0.725 | 0.658 | 0.59 | 0.629 | 0.843 | 0.824
L fixed | 0.766 | 0.705 | 0.898 | 0.829 | 0.979 | 0.688 | 0.604 | 0.844 | 1.03
M fixed | 1.24 | 0.904 | 0.979 | 0.994 | 1.05 | 0.746 | 0.68 | 1 | 0.964
N fixed | 0.742 | 0.874 | 0.922 | 1.03 | 1.02 | 0.854 | 0.845 | 0.932 | 0.946
P fixed | 0.477 | 0.495 | 0.638 | 1.01 | 1.4 | 0.833 | 0.907 | 0.974 | 0.788
Q fixed | 1.03 | 0.781 | 0.712 | 0.877 | 0.843 | 0.733 | 0.663 | 0.83 | 0.758
R fixed | 0.646 | 0.614 | 0.631 | 0.709 | 0.819 | 1.13 | 1.6 | 1.1 | 0.933
V fixed | 1.55 | 1.71 | 0.862 | 0.843 | 1.15 | 0.612 | 0.603 | 0.729 | 0.893
W fixed | 0.93 | 0.948 | 0.922 | 1.25 | 0.595 | 0.657 | 0.592 | 0.815 | 1.02
Y fixed | 1.03 | 1.48 | 1.2 | 0.992 | 1.12 | 0.794 | 0.605 | 0.847 | 1.23
pThr fixed | 7.07 | 1.13 | 1.13 | 2.86 | 1.38 | 5.37 | 5.68 | 2.74 | 1.72
pTyr fixed | 3.27 | 1.99 | 2.21 | 1.72 | 3.26 | 18.2 | 6.04 | 3.04 | 2.78

STK38, construct: Full length, human (from UniProt Q15208)
relative phosphorylation
Settings | at +1 | at +2 | at +3 | at +4 | at -1 | at -2 | at -3 | at -4 | at -5
A fixed | 0.75 | 1.35 | 0.73 | 0.791 | 0.743 | 0.739 | 0.655 | 0.978 | 0.83
D fixed | 0.673 | 1.2 | 0.723 | 1.06 | 0.728 | 0.6 | 0.558 | 0.704 | 0.609
E fixed | 0.644 | 0.483 | 0.631 | 0.807 | 0.524 | 0.494 | 0.476 | 0.71 | 0.477
F fixed | 0.893 | 0.79 | 1.04 | 0.894 | 0.545 | 0.758 | 0.413 | 0.596 | 0.557
G fixed | 1.36 | 1.33 | 1.23 | 1.16 | 1.45 | 0.936 | 0.771 | 1.09 | 0.88
H fixed | 1.04 | 2.51 | 1.3 | 1.03 | 1.18 | 1.56 | 1.35 | 1.26 | 3.01
I fixed | 1.07 | 0.495 | 0.738 | 0.891 | 0.325 | 0.38 | 0.31 | 0.575 | 0.498
K fixed | 0.845 | 0.783 | 1.12 | 1.13 | 1.94 | 2.24 | 2.21 | 2.17 | 2.44
L fixed | 0.932 | 0.516 | 1.02 | 0.897 | 0.752 | 0.451 | 0.377 | 0.618 | 0.546
M fixed | 1.59 | 0.575 | 0.831 | 0.929 | 0.751 | 0.571 | 0.455 | 0.745 | 0.477
N fixed | 1.13 | 1.11 | 0.954 | 1.16 | 1.34 | 1.23 | 0.841 | 0.878 | 0.795
P fixed | 0.335 | 0.69 | 0.872 | 1.28 | 1.65 | 0.83 | 1.18 | 1.04 | 0.749
Q fixed | 1.15 | 0.982 | 0.938 | 1.12 | 1.17 | 0.974 | 0.886 | 0.966 | 0.737
R fixed | 1.06 | 0.87 | 1.27 | 1.1 | 1.61 | 3.03 | 4.9 | 2.46 | 2.35
V fixed | 0.965 | 1.01 | 0.729 | 0.835 | 0.477 | 0.421 | 0.35 | 0.6 | 0.542
W fixed | 1.4 | 1.32 | 1.59 | 1.05 | 0.777 | 1.05 | 0.637 | 0.884 | 0.867
Y fixed | 1.18 | 0.992 | 1.29 | 0.865 | 1.03 | 0.727 | 0.636 | 0.733 | 0.636
pThr fixed | 1.01 | 0.848 | 0.709 | 0.92 | 0.546 | 0.635 | 0.572 | 0.738 | 0.545
pTyr fixed | 0.731 | 0.745 | 0.819 | 0.623 | 0.559 | 0.525 | 0.613 | 0.547 | 0.515

NEK3, construct: Full length, human (from UniProt P51956)
relative phosphorylation
Settings | at +1 | at +2 | at +3 | at +4 | at -1 | at -2 | at -3 | at -4 | at -5
A fixed | 0.842 | 0.788 | 1.09 | 0.919 | 1.02 | 0.977 | 1.09 | 1.16 | 1.06
D fixed | 0.145 | 0.299 | 0.257 | 0.346 | 0.588 | 0.551 | 0.343 | 0.456 | 0.653
E fixed | 0.12 | 0.323 | 0.219 | 0.321 | 0.496 | 0.632 | 0.36 | 0.511 | 0.632
F fixed | 1.67 | 0.786 | 1.1 | 0.796 | 0.841 | 1.37 | 1.98 | 1.43 | 1.05
G fixed | 0.687 | 1.41 | 1.42 | 1.64 | 1.33 | 1.45 | 1.51 | 1.28 | 1.25
H fixed | 1.13 | 1.45 | 1.07 | 1.35 | 1.45 | 1.21 | 1.11 | 1.03 | 1.17
I fixed | 1.65 | 0.967 | 1.12 | 0.984 | 0.629 | 0.749 | 0.642 | 0.798 | 0.97
K fixed | 0.579 | 1.4 | 1.07 | 1.24 | 1.07 | 0.866 | 0.478 | 1.02 | 1.1
L fixed | 1.29 | 0.674 | 1.22 | 0.841 | 0.865 | 1.19 | 1.65 | 1.09 | 0.959
M fixed | 1.94 | 1.09 | 1.05 | 0.982 | 1.59 | 1.42 | 1.87 | 1.2 | 1.27
N fixed | 0.416 | 1.21 | 0.721 | 1.05 | 1.03 | 0.903 | 0.657 | 0.848 | 1.02
P fixed | 0.351 | 0.719 | 1.2 | 1.38 | 0.204 | 0.259 | 0.495 | 0.597 | 0.821
Q fixed | 0.719 | 0.826 | 0.873 | 0.769 | 0.846 | 0.826 | 0.561 | 0.867 | 0.74
R fixed | 0.807 | 2.17 | 1.28 | 1.6 | 2 | 0.822 | 1.05 | 1.05 | 1.54
V fixed | 1.66 | 0.904 | 1.01 | 0.768 | 0.739 | 0.734 | 0.486 | 0.823 | 0.7
W fixed | 1.56 | 0.774 | 1.27 | 1.08 | 0.938 | 1.49 | 1.42 | 1.79 | 0.993
Y fixed | 1.42 | 1.21 | 1.05 | 0.958 | 1.36 | 1.55 | 1.28 | 1.05 | 1.07
pThr fixed | 0.188 | 0.183 | 0.26 | 0.166 | 0.146 | 0.255 | 0.386 | 0.57 | 0.612
pTyr fixed | 0.165 | 0.278 | 0.254 | 0.254 | 0.414 | 0.612 | 0.399 | 0.446 | 0.642

BMPR1A, construct: aa187-end, human (from UniProt P36894)
relative phosphorylation
Settings | at +1 | at +2 | at +3 | at +4 | at -1 | at -2 | at -3 | at -4 | at -5
A fixed | 0.574 | 0.952 | 0.911 | 0.854 | 0.648 | 0.721 | 0.791 | 0.912 | 0.982
D fixed | 2.03 | 1.24 | 1.79 | 1.3 | 1.72 | 1.97 | 2.32 | 2.47 | 1.88
E fixed | 6.79 | 1.52 | 1.55 | 1.31 | 1.95 | 7.73 | 2.92 | 1.81 | 1.65
F fixed | 0.398 | 0.622 | 0.89 | 0.889 | 0.797 | 0.384 | 0.65 | 0.792 | 0.807
G fixed | 0.58 | 1.89 | 0.941 | 1 | 0.483 | 0.579 | 0.948 | 0.958 | 0.93
H fixed | 0.431 | 1.25 | 0.889 | 1.06 | 0.983 | 0.483 | 0.826 | 0.987 | 1.02
I fixed | 0.677 | 0.554 | 1.01 | 1.01 | 0.809 | 0.432 | 0.662 | 0.781 | 0.83
K fixed | 0.335 | 0.803 | 0.498 | 0.738 | 0.587 | 0.351 | 0.564 | 0.741 | 0.86
L fixed | 0.417 | 0.613 | 0.926 | 0.797 | 1.17 | 0.453 | 0.649 | 0.701 | 0.802
M fixed | 0.57 | 0.721 | 0.85 | 0.922 | 1.67 | 0.462 | 0.859 | 0.808 | 0.791
N fixed | 0.668 | 0.776 | 0.793 | 0.946 | 1.01 | 0.693 | 1.24 | 1.08 | 1.22
P fixed | 0.265 | 1.31 | 0.936 | 0.964 | 0.466 | 0.401 | 0.74 | 0.775 | 0.699
Q fixed | 0.644 | 0.735 | 0.729 | 0.931 | 1.13 | 0.659 | 1.02 | 0.892 | 0.908
R fixed | 0.314 | 0.691 | 0.478 | 0.767 | 0.555 | 0.395 | 0.636 | 0.718 | 0.886
V fixed | 1.47 | 0.632 | 1.13 | 0.961 | 1.23 | 0.545 | 0.731 | 0.887 | 0.832
W fixed | 0.421 | 1.14 | 1.46 | 1.38 | 0.77 | 0.392 | 0.676 | 0.887 | 0.965
Y fixed | 0.417 | 1.55 | 1.21 | 1.18 | 1.02 | 0.349 | 0.755 | 0.791 | 0.928
pThr fixed | 5.36 | 1.98 | 1.01 | 1.31 | 1.08 | 1.66 | 2.19 | 1.53 | 1.46
pTyr fixed | 1.09 | 0.876 | 1.35 | 1.22 | 1.54 | 0.763 | 1.55 | 1.09 | 1.42
